Data on three molecules can be found in publication PMC9041927, “Aptamer based surface plasma resonance assay for direct detection of neuron specific enolase and progastrin-releasing peptide (31-98)†”.

For data set [1], the target named is T1, neuron specific enolase (NSE) (UniProt P09104 2-434). The data set can be described thus: SPR; 5 mM MgCl2; kon 1.21e4 (printed Ms-1), koff 1.004e-3 s-1; SPR (Biacore X100, SA chip); 1x PBS pH 7.5, 0.1% Tween 20, 5 mM MgCl2 (NSE) or 2 mM MgCl2 (ProGRP31-98); temperature not stated. The settings on record: protein: recombinant; chain copies: 2; label: 5' biotin-TEG.
T1 sequence (P09104 2-434): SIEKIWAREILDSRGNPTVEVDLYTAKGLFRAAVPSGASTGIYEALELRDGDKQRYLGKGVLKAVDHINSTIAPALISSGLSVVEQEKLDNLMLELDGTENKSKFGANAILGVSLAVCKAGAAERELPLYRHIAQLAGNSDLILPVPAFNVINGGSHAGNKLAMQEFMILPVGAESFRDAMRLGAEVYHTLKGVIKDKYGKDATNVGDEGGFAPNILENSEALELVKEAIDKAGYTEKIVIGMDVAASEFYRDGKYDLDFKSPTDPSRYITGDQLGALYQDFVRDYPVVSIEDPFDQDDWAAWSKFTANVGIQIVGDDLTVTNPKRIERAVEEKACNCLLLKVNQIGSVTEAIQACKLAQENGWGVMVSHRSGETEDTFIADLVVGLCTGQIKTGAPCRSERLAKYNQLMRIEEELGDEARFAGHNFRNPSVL

Data set [2] has as its target T1, neuron specific enolase (NSE). Kind of data set: SPR; NSE 125 nM to 2 uM; SPR (Biacore X100, SA chip); 1x PBS pH 7.5, 0.1% Tween 20, 5 mM MgCl2 (NSE) or 2 mM MgCl2 (ProGRP31-98); temperature not stated. Particulars: protein: recombinant; chain copies: 2; label: 5' biotin-TEG.
For data set [3], the target named is T2, progastrin-releasing peptide (31-98) (ProGRP31-98) (UniProt P07492 54-121).
T2 sequence: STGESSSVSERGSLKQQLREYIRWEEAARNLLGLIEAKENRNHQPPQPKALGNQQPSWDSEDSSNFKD
The data set can be described thus: SPR; 2 mM MgCl2; kon 8.64e3 (printed Ms-1), koff 1.321e-3 s-1; SPR (Biacore X100, SA chip); 1x PBS pH 7.5, 0.1% Tween 20, 5 mM MgCl2 (NSE) or 2 mM MgCl2 (ProGRP31-98); temperature not stated. Particulars: protein: commercial; label: 5' biotin-TEG.

As to TCACACACGGACCTCTCCTACATTAATTGCGCATTTCGTT (ssDNA) [NSE-Apt5-5BioTEG], the Kd in data set [1] was around 83 nM.

Take TCAGGTGCAGTTCTCGACTCGGTCTTGATGTGGGT (ssDNA) [DNA control]: the binding result in data set [2] is on record as “no binding”.

On to CATGCGGAGTAGATTCGAGCCCAGATAGTCCCTGGTTATTTCCTTAGG (ssDNA) [ProGRP-48-5BioTEG], for which the Kd in data set [3] worked out at 153 nM.
